Earlier results in article PMC10876095.
Like-named read-outs stand apart in the source and are kept apart here.

Key:
[1] = biological target: tau (Homo sapiens) (UniProt P10636); assay: SPR
[2] = biological target: tau (Homo sapiens) (UniProt P10636)
[3] = biological target: tau (Homo sapiens) (UniProt P10636); assay: SPR; remark: listed apart in the source

Sequence of UniProt P10636 (P10636 2-758): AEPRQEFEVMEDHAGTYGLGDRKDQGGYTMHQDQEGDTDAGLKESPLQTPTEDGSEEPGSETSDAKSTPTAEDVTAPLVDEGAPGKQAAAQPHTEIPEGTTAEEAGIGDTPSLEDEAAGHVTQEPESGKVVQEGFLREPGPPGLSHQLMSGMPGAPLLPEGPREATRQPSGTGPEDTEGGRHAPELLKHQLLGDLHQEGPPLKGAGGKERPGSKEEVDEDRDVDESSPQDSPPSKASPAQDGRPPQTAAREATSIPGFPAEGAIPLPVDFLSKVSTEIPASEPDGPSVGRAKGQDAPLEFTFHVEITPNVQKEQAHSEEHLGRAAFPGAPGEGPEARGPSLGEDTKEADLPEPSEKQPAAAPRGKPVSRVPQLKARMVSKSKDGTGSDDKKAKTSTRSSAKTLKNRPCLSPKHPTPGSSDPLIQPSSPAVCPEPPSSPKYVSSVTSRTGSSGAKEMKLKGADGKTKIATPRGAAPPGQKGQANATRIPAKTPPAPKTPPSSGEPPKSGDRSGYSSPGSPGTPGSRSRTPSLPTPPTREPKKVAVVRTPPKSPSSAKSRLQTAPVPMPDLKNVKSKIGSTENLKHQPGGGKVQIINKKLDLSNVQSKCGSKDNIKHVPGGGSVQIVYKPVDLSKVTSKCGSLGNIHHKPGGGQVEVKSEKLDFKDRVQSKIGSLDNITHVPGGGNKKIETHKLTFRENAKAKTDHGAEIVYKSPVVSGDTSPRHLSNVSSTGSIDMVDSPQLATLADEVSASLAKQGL

- Kd [1]: 312 nM
- Kd [2]: 900 nM
- Kd [3]: 22 nM
Substance: 14-3-3ζ (from UniProt P63104)
